# Numbering of substitutions follows the chain as printed. Names may count otherwise.
# B1: CLIP-170 CG1 fragment (58-140), P30622 K98E (protein)
# chain: FRVGERVWVNGNKPGFIQFLGETQFAPGQWAGIVLDEPIGENDGSVAGVRYFQCEPLKGIFTRPSKLTRKVQAEDEANGLQTT
# B2: CLIP-170 CG1 fragment (58-140), P30622 K98E; N99D (protein)
# chain: B1 chain with N42D
# B3: CLIP-170 CG1 fragment (58-140), P30622 K123A (protein)
# chain: B1 chain with E41K, K66A
# B4: CLIP-170 CG2 fragment (206-288), P30622 K238A (protein)
# chain: KKGERELKIGDRVLVGGTKAGVVRFLGETDFAAGEWCGVELDEPLGKNDGAVAGTRYFQCQPKYGLFAPVHKVTKIGFPSTTP
# B5: CLIP-170 CG2 fragment (206-288), P30622 K252E; N253D (protein)
# chain: B4 chain with A33K, K47E, N48D
# B6: CLIP-170 CG2 fragment (206-288), P30622 K224A (protein)
# chain: B4 chain with K19A, A33K
# B7: CLIP-170 CG2 fragment (206-288), P30622 K277A (protein)
# chain: B4 chain with A33K, K72A
# B8: CLIP-170 CG2 fragment (206-288), P30622 N253A (protein)
# chain: B4 chain with A33K, N48A
# B9: CLIP-170 CG2 fragment (206-288), P30622 K252A (protein)
# chain: B4 chain with A33K, K47A
# Biological target: taxol-stabilized microtubules polymerized from porcine brain tubulin, P02550
# Sequence (P02550 whole entry, chain 1 of 2): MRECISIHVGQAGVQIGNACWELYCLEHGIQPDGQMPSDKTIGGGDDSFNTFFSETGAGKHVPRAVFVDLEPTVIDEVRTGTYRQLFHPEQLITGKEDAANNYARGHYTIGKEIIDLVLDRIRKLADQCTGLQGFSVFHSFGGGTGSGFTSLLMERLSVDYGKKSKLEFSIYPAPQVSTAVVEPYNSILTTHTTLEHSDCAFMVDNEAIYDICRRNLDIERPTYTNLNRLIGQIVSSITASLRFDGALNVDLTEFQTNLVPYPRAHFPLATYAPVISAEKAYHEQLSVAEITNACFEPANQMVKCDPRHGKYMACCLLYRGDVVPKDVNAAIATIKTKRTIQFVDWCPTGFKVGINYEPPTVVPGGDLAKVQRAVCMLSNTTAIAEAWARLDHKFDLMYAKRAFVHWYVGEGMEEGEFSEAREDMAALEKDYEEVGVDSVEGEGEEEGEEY
# Sequence (chain, as listed by the source, chain 2 of 2): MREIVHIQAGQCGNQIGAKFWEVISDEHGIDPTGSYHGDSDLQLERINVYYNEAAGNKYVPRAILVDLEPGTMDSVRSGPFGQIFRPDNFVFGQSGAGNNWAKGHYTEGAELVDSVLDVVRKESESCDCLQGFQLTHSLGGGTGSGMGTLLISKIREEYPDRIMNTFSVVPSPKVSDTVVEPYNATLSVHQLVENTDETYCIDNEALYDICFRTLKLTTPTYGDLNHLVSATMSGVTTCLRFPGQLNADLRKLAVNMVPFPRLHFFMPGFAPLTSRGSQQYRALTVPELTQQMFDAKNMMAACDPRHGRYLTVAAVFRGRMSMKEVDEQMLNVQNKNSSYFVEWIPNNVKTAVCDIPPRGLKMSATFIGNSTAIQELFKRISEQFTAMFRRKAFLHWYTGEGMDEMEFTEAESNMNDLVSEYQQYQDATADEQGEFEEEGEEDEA
# Assay: MT-binding assay (cosedimentation)
# Settings: chain shown with the change; 5 μM CG1 mutant, […] taxol–MTs; parent: est. 1.0; read off a plot
row,ratio to parent,Binder
1,0.28,B1
2,0.42,B2
3,0.52,B3

# Same assay, conditions: chain shown with the change; 5 μM CG2 mutant, […] taxol–MTs; parent: est. 1.0; read off a plot
row,ratio to parent,Binder
1,0.97,B4
2,0.23,B5
3,0.4,B6
4,0.75,B7
5,0.8,B8
6,0.28,B9
